The values below come from paper PMC12246617, “Cryo-EM structures reveal the PP2A–B55α and Eya3 interaction that can be disrupted by a peptide inhibitor” (The Journal of Biological Chemistry, 2025).

The target in this experiment is His-hB55 (human PP2A regulatory subunit B55α) (human) (UniProt P63151). Kind of experiment: MST; His-B55 labelled with RED-Tris-NTA dye, added to serial dilutions of mEya3 (wild type or mutant) in PBS with 0.05% Tween-20; Monolith NT.115 Pico.
Sequence of His-hB55 (human PP2A regulatory subunit B55α) (human) (P63151 whole entry): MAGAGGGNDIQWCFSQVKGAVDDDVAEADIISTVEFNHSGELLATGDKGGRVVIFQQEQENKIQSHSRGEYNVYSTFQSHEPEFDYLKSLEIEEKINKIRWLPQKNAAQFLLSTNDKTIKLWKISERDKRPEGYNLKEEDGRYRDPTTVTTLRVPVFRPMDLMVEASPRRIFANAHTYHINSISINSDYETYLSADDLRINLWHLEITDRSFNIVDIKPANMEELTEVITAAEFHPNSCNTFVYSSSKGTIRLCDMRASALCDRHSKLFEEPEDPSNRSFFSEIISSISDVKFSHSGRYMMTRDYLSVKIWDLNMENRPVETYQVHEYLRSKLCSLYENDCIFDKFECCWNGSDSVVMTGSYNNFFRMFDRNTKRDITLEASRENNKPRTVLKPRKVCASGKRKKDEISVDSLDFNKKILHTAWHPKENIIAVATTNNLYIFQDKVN

As usually defined, the Kd is the constant that tells how readily two partners part at equilibrium. High values mean a looser complex, low ones a tighter complex. With “mouse Eya3 (mEya3), wild type (from UniProt P97480 1-510) (natural protein)”, the Kd was 1040 nM.
